From paper PMC4844016 (ACS chemical neuroscience, 2015)

How the values were obtained:
[1] = test system: SH-SY5Y neuroblastoma cells; assay: Apoptosis assay, Annexin V-FITC staining; type: cell-based; settings: SHSY-5Y cells, 1 μM, data not shown
[2] = Thioflavin T; type: physicochemical; settings: 20 µM peptide, 40 µM ThT, pH 7.5, 37°C, shaking
[3] = test system: differentiated PC12 cells; assay: MTT assay; type: cell-based; settings: NGF-differentiated PC12 cells, 10 µM freshly prepared peptide, 24 h, 37°C; normalized to media control; three independent experiments, 6 wells
[4] = Quasielastic light scattering spectroscopy; type: physicochemical; settings: QLS
[5] = Oligomerization by PICUP and SDS-PAGE; type: physicochemical; settings: 25–35 μM peptide, cross-linked, SDS-PAGE, silver staining
[6] = Electron microscopy of assembly morphology; type: physicochemical; settings: EM
[7] = Ion mobility-mass spectrometry, oligomer distributions; type: physicochemical; settings: IM-MS, 10 μM peptide in 10 mM ammonium acetate, pH 7.4
[8] = Thermodynamics of fibril formation; type: physicochemical; settings: ΔG^0 = −RT ln (1/Cr); 20 μM, 37°C, 21 days without shaking; four independent experiments
[9] = Bis-ANS fluorescence, exposure of hydrophobic surfaces; type: physicochemical; settings: 20 µM peptide incubated at 37°C, shaking

Compound	effect of positive control on cells [1]	time ThT fluorescence remained constant (lag) [2]	decrease in MTT metabolism [3]	RH of small particles, initial distribution ([4]; 0.5 h of incubation)	RH of larger particles also observed, initial distribution ([4]; 0.5 h of incubation, relatively few particles)	RH of oligomers remaining after 24 h ([4]; 24 h of incubation)	maximal RH after 24 h ([4]; 24 h of incubation) [nm]	oligomer size distribution by PICUP [5]	globules, size range, Day 0 ([6]; 37°C with shaking, day 0, Image J)	long fibrils, size range, Day 7 ([6]; 37°C with shaking, day 7)	short fibrils, assembly length, Day 7 ([6]; 37°C with shaking, day 7, value in parentheses)	annuli, inside diameter, Day 0 ([6]; day 0)	annuli, outside diameter, Day 0 ([6]; day 0)	oligomers assigned in ATD of z/n = −5/2 peak [7]	ΔG^0 of fibril formation [8]	time of peak Bis-ANS fluorescence [9] [h]
CN[C@@H]1C[C@H]2O[C@@](C)([C@@H]1OC)n1c3ccccc3c3c4c(c5c6ccccc6n2c5c31)C(=O)NC4 [staurosporine]	complete disruption of membrane integrity	–	–	–	–	–	–	–	–	–	–	–	–	–	–	–
Amyloid β−protein (1–42) [Aβ42]	–	≈ 1 h	≈ 23%	8–10 nm	100–1000 nm	8–10 nm	> 1000	prominent node of band intensity at pentamer-hexamer	11–23 nm	9–21 nm	56–303 nm	4–11 nm	13–25 nm	dimer, tetramer, hexamer, and dodecamer	−8.45 (0.12) kcal/mole	4
